For experiment [1], the target named is S2SbHbN, Shewanella benthica strain KT99 TrHbN-2 (UniProt ID: A9DF82) with Cys51Ser and Cys71Ser replacements (Shewanella benthica strain KT99). The experiment is described as follows: HP-SAXS (batch SAXS in the high-pressure cell); undiluted sample 10 mg/ml in the high-pressure cell, ambient pressure (0.101 MPa) point of the pressure series; volume-fraction analysis, radius of gyration and molecular mass.

Experiment [2] addresses Y34F S2SbHbN (Shewanella benthica strain KT99). The experiment is described as above.

Regarding “S2SbHbN, Shewanella benthica strain KT99 TrHbN-2 (UniProt ID: A9DF82) with Cys51Ser and Cys71Ser replacements (natural protein)”, the stoichiometry N (in general, the number of molecules, sites or subunits per partner or assembly) in experiment [1] amounted to 4.
For the substance Y34F S2SbHbN (natural protein), the stoichiometry N in experiment [2] was determined as 4.

Source of the values: article PMC11904497.
